Values of other authors in publication PMC12930849.
Where “and” joins values, the source holds several entries; their conditions need not be identical. Identical values can stand only once.

Columns and labels:
Test in all cases: NMR
Asp52 = Asp52 (UniProt position 70, TDGSTDYGILQ)
Glu7 = Glu7 (UniProt position 25, VFGRCELAAAM)
Cterm = Cterm (UniProt position 147, IRGCRL-----)
Asp101 = Asp101 (UniProt position 119, KKIVSDGNGMN)
Glu35 = Glu35 (UniProt position 53, CAAKFESNFNT)
His15 = His15 (UniProt position 33, AAMKRHGLDNY)
Asp87 = Asp87 (UniProt position 105, ALLSSDITASV)
Asp18 = Asp18 (UniProt position 36, KRHGLDNYRGY)
Asp119 = Asp119 (UniProt position 137, RCKGTDVQAWI)

In the case of “Hen egg-white lysozyme (lysozyme C) (Gallus gallus)”, the pKa (Asp52) is given as 3.68 ± 0.08 and 3.6 ± 0.3, the pKa (Glu7) is given as 2.85 ± 0.25 and 2.6 ± 0.2 and the pKa (Cterm) is given as 2.75 ± 0.02 and 2.7 ± 0.2. The pKa (Asp101) was 4.09 ± 0.07 and 4.5 ± 0.1, the pKa (Glu35) was 6.20 ± 0.10 and 6.1 ± 0.4 and the pKa (His15) was 5.36 ± 0.07 and 5.5 ± 0.2. For the same substance, the pKa (Asp87) was 2.07 ± 0.15 and 2.2 ± 0.1, the pKa (Asp18) was 2.66 ± 0.08 and 2.8 ± 0.3 and the pKa (Asp119) was 3.20 ± 0.09 and 3.5 ± 0.3.
